Sequences and labels used below:
B1: CPEB3 Ribozyme (parent)
chain: GGGGGCCACAGCAGAAGCGUUCACGUCGCGGCCCCUGUCAGAUUCUGGUGAAUCUGCGAAUUCUGCUGU

The variants in the data set derive from B1. The data set is described as follows: self-cleavage, relative activity (ratio to wild type); higher = more cleavage; co-transcriptional.
Consider A8U C54U, for which the self-cleavage was 1.03.
The result for A8G G30A reads 0.861.
Consider A8G G30U, for which the self-cleavage was found to be 0.335.
Turning to A8G G30C, the self-cleavage is 0.602.
For C9A G28U, the self-cleavage was 0.187.
The result for C9A G28C reads 0.196; that for A8G G17U, 0.103; that for A8G G17A, 0.0671.
Regarding A8G G17C, the self-cleavage worked out at 0.0831.
The same measure for C9G A16G: 0.957; for C9G A16U: 0.887.
The same measure for A8G U67C: 0.573.
On to A8G U67G, for which the self-cleavage came to 0.64.
In the case of A8U U36A, the self-cleavage turned out to be 0.229.
The result for A8U U36C reads 0.887.
Take A8U C9G: the self-cleavage worked out at 1.01.
Turning to A8U C9U, the self-cleavage is 1.02.
The result for C9A G65C reads 0.627; that for C9A C39G, 1; that for C9A C39A, 0.942.
For the variant C9A U44A, the self-cleavage is 0.998.
For the variant C9A U44C, the self-cleavage stood at 1.02.
The same measure for A8U A42C: 0.972; for A8U A42U: 0.995.
The same measure for C9A G25A: 0.264.
C9A G25U: the self-cleavage stood at 0.181.
For C9A G30U, the self-cleavage is 0.846.
As for C9A G30A, the self-cleavage came out at 1.01.
The same measure for C9A G30C: 0.953; for A8U G14U: 0.785; for A8U G14A: 0.827.
The result for A8G C63A reads 0.253; that for A8G C63G, 0.164.
The result for A8G C63U reads 0.612; that for A8U A10U, 0.998.
Regarding C9A C32U, the self-cleavage came out at 1.01.
The same measure for C9A A10U: 1.05; for A8U G11A: 0.906; for A8U G11U: 0.902.
The result for A8G G37C reads 0.123; that for A8G G28A, 0.0955; that for A8G G28C, 0.102.
Consider A8G G28U, for which the self-cleavage was 0.137.
The result for A8U U55G reads 0.823.
As for A8U U55C, the self-cleavage is 0.912.
As for C9A U46A, the self-cleavage came to 1.02.
The same measure for C9A U46C: 0.996; for C9A C27G: 0.256.
The result for C9A C27U reads 0.695; that for A8U G50C, 1; that for A8U G50A, 1.03.
The result for A8U G19A reads 0.198; that for A8U U38C, 1.01.
In the case of A8U U38A, the self-cleavage was found to be 0.871.
The result for A8U U38G reads 0.221; that for A8U A23U, 1.
With A8U A23G, the self-cleavage was determined as 0.965.
On to C9A U26A, for which the self-cleavage turned out to be 0.946.
As for C9A U26C, the self-cleavage came to 0.983.
The result for C9G A23G reads 0.976; that for C9G A23U, 0.978; that for A8U A16G, 0.947.
On to A8U A16C, for which the self-cleavage stood at 0.309.
The same measure for A8U A16U: 0.867; for A8U G25A: 0.179.
With A8U G25C, the self-cleavage was 0.0896.
In the case of C9G A13C, the self-cleavage was determined as 0.845.
The result for C9G A13G reads 0.922; that for A8U U49G, 1.02.
The same measure for C9G A51G: 0.993.
The result for C9G A51U reads 0.976; that for A8U A13C, 0.855.
Turning to A8U A13G, the self-cleavage was determined as 1.02.
The result for C9A U49C reads 0.989.
The result for A8G U49A reads 0.938.
On to A8G U49C, for which the self-cleavage was 0.828.
The result for A8G U49G reads 0.895; that for C9A C63U, 0.985; that for C9A C66A, 0.905.
In the case of C9A C66G, the self-cleavage came to 0.923.
With A8U G58C, the self-cleavage was 0.988.
The same measure for A8U G58U: 1.03.
Take C9A A51G: the self-cleavage is 1.03.
The result for C9A A51U reads 1.04; that for C9A A51C, 1.03.
The same measure for A8U C35A: 0.257; for A8U C35U: 1.01.
The result for C9A G17U reads 0.622; that for C9A G17A, 0.707.
For C9A U38C, the self-cleavage was 1.03.
Take C9A U36C: the self-cleavage stood at 0.968.
The result for C9A U36G reads 0.244.
The same measure for A8U C33G: 0.685; for A8U C45U: 1.03.
The same measure for C9G A60C: 0.385; for C9G A60U: 0.486; for C9A U43G: 0.876.
For C9A U43A, the self-cleavage worked out at 0.967.
The same measure for A8U U61A: 0.944; for A8U U61G: 0.959; for C9A C35A: 0.423.
The result for C9A C35U reads 1.03; that for C9A C35G, 0.72.
For the variant A8G G14A, the self-cleavage was 0.13.
The same measure for A8G G14U: 0.0849.
The result for A8G G14C reads 0.125; that for C9A A42C, 0.999.
The result for C9A A60C reads 0.364; that for C9A A60G, 1.04; that for C9A A60U, 0.632.
As to A8G U61C, the self-cleavage amounted to 0.142.
The result for A8G U61G reads 0.284.
The same measure for A8U U64A: 0.969; for A8U G47A: 1.01; for A8U G47C: 1.03.
Regarding A8U G47U, the self-cleavage amounted to 0.999.
Take C9A C29G: the self-cleavage worked out at 0.854.
The same measure for A8G U26A: 0.644.
The same measure for A8G U26G: 0.622.
The result for A8G U26C reads 0.325; that for C9A G56A, 1.02.
Consider C9G A40G, for which the self-cleavage was 0.968.
For the variant C9G A52G, the self-cleavage was 1.05.
As for A8G U69G, the self-cleavage is 1.04.
The same measure for C9A A15G: 1.03; for A8G G48A: 0.939; for A8G G48U: 0.943.
As to A8U G30A, the self-cleavage was determined as 0.963.
For the variant A8U G30C, the self-cleavage worked out at 0.849.
The result for C9A U64G reads 0.951; that for C9A U64A, 0.94.
Take C9A U64C: the self-cleavage came out at 0.938.
The result for A8U U69A reads 1.05; that for A8U U69C, 1.06; that for C9A U53A, 1.03.
For the variant C9A U53C, the self-cleavage came out at 0.997.
The result for A8G U36A reads 0.135; that for A8G U43A, 0.401.
On to A8G U43G, for which the self-cleavage is 0.398.
A8U A15U: the self-cleavage amounted to 0.882.
The same measure for A8U A15G: 0.998; for A8U C39G: 0.988.
Take A8U C39A: the self-cleavage is 0.864.
Regarding C9A C45A, the self-cleavage amounted to 1.02.
The same measure for C9A C45U: 1.01; for A8U U43C: 0.951; for A8U U43A: 0.899.
Turning to A8G G47U, the self-cleavage came to 0.92.
The same measure for A8G G47C: 0.945.
The result for C9A A40U reads 0.969; that for C9A A40C, 0.71; that for C9A G58A, 1.02.
The same measure for C9A G48U: 1.03.
As for C9A G48C, the self-cleavage was 1.02.
On to A8U G48A, for which the self-cleavage was determined as 1.03.
The same measure for A8U G48C: 0.994; for A8U U67G: 1.03.
A8G C54G: the self-cleavage was 0.343.
The result for A8G C54A reads 0.331; that for A8G C54U, 0.805.
For C9A G37C, the self-cleavage stood at 0.242.
The same measure for C9A G37A: 0.397; for A8U G56U: 0.972.
Consider A8U G56A, for which the self-cleavage was determined as 0.957.
Regarding C9A G19A, the self-cleavage turned out to be 0.129.
The same measure for C9A G19U: 0.609; for C9A G19C: 0.111.

The record behind these values is the RNAGym collection of RNA variant scans (doi:10.7554/elife.80360).
